# Source: paper PMC13544220, “Glycemic and bodyweight effects of GIPR coding variation reflect differences in surface expression and intrinsic functional impairment” (Science Advances, 2026)
# Columns and labels:
# Assay type in all cases: cell-based, human
# [1] = system: wild-type and variant SNAP-GIPR; experiment: Surface SNAP-GIPR expression (SNAP-tag labelling) in INS-1 cells; conditions: Fig 4G; Mean
# Method in brief: (§1)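 Read-out: whole-cell fluorescence of surface-only SNAP label (Alexa Fluor 647, 500 nM, 10 min, RT), wide-field 20X, several FOVs per well. Flat-field corrected, phase-contrast masked, nontransfected-well signal subtracted; normalized to experiment mean or wild-type.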
# [2] = system: wild-type and variant SNAP-GIPR; experiment: Single-concentration GIP cAMP response by HTRF in AD293 cells; conditions: Fig S3F, HTRF, mean;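 note: ratio to experiment-wide average response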
# Procedure: (§2) All variants were tested in parallel on each occasion to control for transfection efficiency differences between experiments.
# [3] = system: wild-type and variant SNAP-GIPR; experiment: Single-concentration GIP cAMP response by HTRF in INS-1 cells; conditions: Fig S3E, mean
# Procedure: as §2
# [4] = system: wild-type and variant SNAP-GIPR; experiment: Surface SNAP-GIPR expression (SNAP-tag labelling) in AD293 cells; conditions: for AD293 Surface: Fig S3E, mean; for Surface SNAP-GIPR expression: sheet Fig 1C;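 for all read-outs here: scaled to the experimental average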
# Method in brief: as §1
# [5] = system: wild-type and variant SNAP-GIPR; experiment: Constitutive and agonist-mediated internalization, reversible SNAP-tag labelling, AD293 cells; set-up: key to Internalisation, Vehicle / Internalisation, +GIP / Internalisation, GIP-only: % internalization: residual fluorescence after Mesna vs pre-Mesna; Surface expression: unit not given here; conditions: Mean; for +GIP internalisation (100 nM) / GIP-specific internalisation (100 nM) / Constitutive internalisation (100 nM) / Surface expression: Fig 4E; for +GIP internalisation (100 nM) / GIP-specific internalisation (100 nM): GIP 100 nM; for Internalisation, +GIP / Internalisation, GIP-only / Internalisation, Vehicle: Fig S4C, AD293
# Method in brief: (§3)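 Percentage internalization is read as the fraction of specific SNAP fluorescence that survives Mesna stripping, compared with the image taken before Mesna. Wells are imaged in TNE buffer at pH 8.6 and again after 10 min.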
# [6] = system: wild-type and variant SNAP-GIPR; experiment: cADDis cAMP imaging in AD293 cells, ensemble, expression-matched and per decile; conditions: Fig S3F, cADDis, mean;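 note: Ensemble cells as % of IBMX/FSK response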
# Method in brief: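 AD293 cells reverse-transfected with wild-type or variant SNAP-GIPR plus cADDis Green Up sensor, variants run in parallel. After 24 h, surface receptor labelled with SNAP-Surface Alexa Fluor 647 (500 nM); single-cell cADDis fluorescence imaged at 37 °C in KRBH, 6 mM glucose, 0.1% BSA. Responses given ensemble, expression-matched by wild-type deciles, or per own decile.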
# [7] = system: wild-type and variant SNAP-GIPR; experiment: Constitutive and agonist-mediated internalization, reversible SNAP-tag labelling, INS-1 cells; set-up: key to Internalisation, GIP-only / Internalisation, Vehicle / Internalisation, +GIP: % internalization: residual fluorescence after Mesna vs pre-Mesna; conditions: Mean; for +GIP internalisation (100 nM) / GIP-specific internalisation (100 nM) / Constitutive internalisation (100 nM): Fig 4G; for +GIP internalisation (100 nM) / GIP-specific internalisation (100 nM): GIP 100 nM; for Internalisation, +GIP / Internalisation, GIP-only / Internalisation, Vehicle: Fig S4C, INS-1
# Method in brief: as §3
# [8] = column repeated, paired with cAMP 100 nM
molecule,measurement,setting,value
"S415G (protein, UniProt P48546 22-466, looked up, variant S415G) Gastric inhibitory …: RAETGSKGQTAGELYQRWERYRRECQETLAAAEPPSGLACNGSFDMYVCWDYAAPNATARASCPWYLPWHHHVAAGFVLRQCGSDGQWGLWRDHTQCENPEKNEAFLDQRLILERLQVMYTVGYSLSLATLLLALLILSLFRRLHCTRNYIHINLFTSFMLRAAAILSRDRLLPRPGPYLGDQALALWNQALAACRTAQIVTQYCVGANYTWLLVEGVYLHSLLVLVGGSEEGHFRYYLLLGWGAPALFVIPWVIVRYLYENTQCWERNEVKAIWWIIRTPILMTILINFLIFIRILGILLSKLRTRQMRCRDYRLRLARSTLTLVPLLGVHEVVFAPVTEEQARGALRFAKLGFEIFLSSFQGFLVSVLYCFINKEVQSEIRRGWHHCRLRRGLGEEQRQLPERAFRALPSGSGPGEVPTSRGLSSGTLPGPGNEASRELESYC",Surface expression,[1],1.381
same,AD293 100 pM HTRF,[2],1.117
same,AD293 100 nM HTRF,[2],1.323
same,INS-1 cAMP (100 nM),[3],1.389
same,AD293 Surface,[4]; [8],1.467
same,AD293 Surface,[4]; paired with cAMP 100 pM,1.467
same,Surface SNAP-GIPR expression,[4]; replicate 1,1.506
same,Surface SNAP-GIPR expression,[4]; replicate 2,0.2667
same,Surface SNAP-GIPR expression,[4]; replicate 3,1.585
same,Surface SNAP-GIPR expression,[4]; replicate 4,2.194
same,Surface SNAP-GIPR expression,[4]; replicate 5,1.195
same,Surface SNAP-GIPR expression,[4]; replicate 6,1.281
same,Surface SNAP-GIPR expression,[4]; replicate 7,1.352
same,Surface SNAP-GIPR expression,[4]; replicate 8,1.443
same,Surface SNAP-GIPR expression,[4]; replicate 9,1.419
same,Surface SNAP-GIPR expression,[4]; replicate 10,1.583
same,Surface SNAP-GIPR expression,[4]; replicate 11,1.553
same,Surface SNAP-GIPR expression,[4]; replicate 12,1.476
same,Surface SNAP-GIPR expression,[4]; replicate 13,2.028
same,Surface SNAP-GIPR expression,[4]; replicate 14,1.05
same,Surface SNAP-GIPR expression,[4]; replicate 15,1.445
same,Surface SNAP-GIPR expression,[4]; replicate 16,1.582
same,Surface SNAP-GIPR expression,[4]; replicate 17,1.552
same,Surface SNAP-GIPR expression,[4]; replicate 18,1.539
same,Surface SNAP-GIPR expression,[4]; replicate 19,1.754
same,Surface SNAP-GIPR expression,[4]; replicate 20,1.368
same,Surface SNAP-GIPR expression,[4]; replicate 21,1.348
same,Surface SNAP-GIPR expression,[4]; replicate 22,1.435
same,Surface SNAP-GIPR expression,[4]; replicate 23,1.476
same,Surface SNAP-GIPR expression,[4]; replicate 24,1.595
same,Surface SNAP-GIPR expression,[4]; replicate 25,1.677
same,Surface SNAP-GIPR expression,[4]; replicate 26,1.136
same,Surface SNAP-GIPR expression,[4]; replicate 27,1.395
same,Surface SNAP-GIPR expression,[4]; replicate 28,1.292
same,Surface SNAP-GIPR expression,[4]; replicate 29,1.605
same,Surface SNAP-GIPR expression,[4]; replicate 30,1.394
same,Surface SNAP-GIPR expression,[4]; replicate 31,1.688
same,Surface SNAP-GIPR expression,[4]; replicate 32,1.36
same,Surface SNAP-GIPR expression,[4]; replicate 33,1.647
same,Surface SNAP-GIPR expression,[4]; replicate 34,1.582
same,Surface SNAP-GIPR expression,[4]; replicate 35,1.005
same,Surface SNAP-GIPR expression,[4]; replicate 36,1.822
same,Surface SNAP-GIPR expression,[4]; replicate 37,1.489
same,Surface SNAP-GIPR expression,[4]; replicate 38,1.364
same,Surface SNAP-GIPR expression,[4]; replicate 39,0.9756
same,Surface SNAP-GIPR expression,[4]; replicate 40,1.792
same,Surface SNAP-GIPR expression,[4]; replicate 41,1.893
same,+GIP internalisation (100 nM),[5],0.8449
same,GIP-specific internalisation (100 nM),[5],0.2187
same,Constitutive internalisation (100 nM),[5],0.6262
same,Surface expression,[5],1.57
same,"Internalisation, +GIP",[5],54.2947
same,"Internalisation, GIP-only",[5],14.1911
same,"Internalisation, Vehicle",[5],40.1036
same,AD293 100 pM cADDis,[6],34.3916
same,AD293 100 nM cADDis,[6],37.46
same,+GIP internalisation (100 nM),[7],0.6865
same,GIP-specific internalisation (100 nM),[7],0.178
same,Constitutive internalisation (100 nM),[7],0.5085
same,"Internalisation, +GIP",[7],49.94
same,"Internalisation, GIP-only",[7],12.7417
same,"Internalisation, Vehicle",[7],37.1983
"S415I (protein, UniProt P48546 22-466, looked up, variant S415I) Gastric inhibitory …: RAETGSKGQTAGELYQRWERYRRECQETLAAAEPPSGLACNGSFDMYVCWDYAAPNATARASCPWYLPWHHHVAAGFVLRQCGSDGQWGLWRDHTQCENPEKNEAFLDQRLILERLQVMYTVGYSLSLATLLLALLILSLFRRLHCTRNYIHINLFTSFMLRAAAILSRDRLLPRPGPYLGDQALALWNQALAACRTAQIVTQYCVGANYTWLLVEGVYLHSLLVLVGGSEEGHFRYYLLLGWGAPALFVIPWVIVRYLYENTQCWERNEVKAIWWIIRTPILMTILINFLIFIRILGILLSKLRTRQMRCRDYRLRLARSTLTLVPLLGVHEVVFAPVTEEQARGALRFAKLGFEIFLSSFQGFLVSVLYCFINKEVQSEIRRGWHHCRLRRILGEEQRQLPERAFRALPSGSGPGEVPTSRGLSSGTLPGPGNEASRELESYC",Surface expression,[1],1.368
same,AD293 100 pM HTRF,[2],1.488
same,AD293 100 nM HTRF,[2],1.113
same,INS-1 cAMP (100 nM),[3],1.251
same,AD293 Surface,[4]; [8],1.415
same,AD293 Surface,[4]; paired with cAMP 100 pM,1.415
same,Surface SNAP-GIPR expression,[4]; replicate 1,1.538
same,Surface SNAP-GIPR expression,[4]; replicate 2,1.541
same,Surface SNAP-GIPR expression,[4]; replicate 3,0.8191
same,Surface SNAP-GIPR expression,[4]; replicate 4,0.7376
same,Surface SNAP-GIPR expression,[4]; replicate 5,1.239
same,Surface SNAP-GIPR expression,[4]; replicate 6,0.9541
same,Surface SNAP-GIPR expression,[4]; replicate 7,1.285
same,Surface SNAP-GIPR expression,[4]; replicate 8,1.716
same,Surface SNAP-GIPR expression,[4]; replicate 9,1.542
same,Surface SNAP-GIPR expression,[4]; replicate 10,1.528
same,Surface SNAP-GIPR expression,[4]; replicate 11,1.71
same,Surface SNAP-GIPR expression,[4]; replicate 12,1.642
same,Surface SNAP-GIPR expression,[4]; replicate 13,1.407
same,Surface SNAP-GIPR expression,[4]; replicate 14,1.415
same,Surface SNAP-GIPR expression,[4]; replicate 15,1.606
same,Surface SNAP-GIPR expression,[4]; replicate 16,1.78
same,Surface SNAP-GIPR expression,[4]; replicate 17,1.435
same,Surface SNAP-GIPR expression,[4]; replicate 18,1.518
same,Surface SNAP-GIPR expression,[4]; replicate 19,1.637
same,Surface SNAP-GIPR expression,[4]; replicate 20,1.459
same,Surface SNAP-GIPR expression,[4]; replicate 21,1.421
same,Surface SNAP-GIPR expression,[4]; replicate 22,1.515
same,Surface SNAP-GIPR expression,[4]; replicate 23,1.665
same,Surface SNAP-GIPR expression,[4]; replicate 24,1.354
same,Surface SNAP-GIPR expression,[4]; replicate 25,1.699
same,Surface SNAP-GIPR expression,[4]; replicate 26,1.338
same,Surface SNAP-GIPR expression,[4]; replicate 27,1.389
same,Surface SNAP-GIPR expression,[4]; replicate 28,1.441
same,Surface SNAP-GIPR expression,[4]; replicate 29,1.484
same,Surface SNAP-GIPR expression,[4]; replicate 30,1.535
same,Surface SNAP-GIPR expression,[4]; replicate 31,1.596
same,Surface SNAP-GIPR expression,[4]; replicate 32,1.349
same,Surface SNAP-GIPR expression,[4]; replicate 33,1.554
same,Surface SNAP-GIPR expression,[4]; replicate 34,1.711
same,Surface SNAP-GIPR expression,[4]; replicate 35,1.113
same,Surface SNAP-GIPR expression,[4]; replicate 36,1.535
same,Surface SNAP-GIPR expression,[4]; replicate 37,1.264
same,Surface SNAP-GIPR expression,[4]; replicate 38,1.181
same,Surface SNAP-GIPR expression,[4]; replicate 39,0.9176
same,Surface SNAP-GIPR expression,[4]; replicate 40,1.301
same,Surface SNAP-GIPR expression,[4]; replicate 41,1.157
same,+GIP internalisation (100 nM),[5],0.7539
same,GIP-specific internalisation (100 nM),[5],0.1889
same,Constitutive internalisation (100 nM),[5],0.565
same,Surface expression,[5],1.257
same,"Internalisation, +GIP",[5],60.2605
same,"Internalisation, GIP-only",[5],14.9072
same,"Internalisation, Vehicle",[5],45.3533
same,AD293 100 pM cADDis,[6],31.0791
same,AD293 100 nM cADDis,[6],35.96
same,+GIP internalisation (100 nM),[7],0.7564
same,GIP-specific internalisation (100 nM),[7],0.2171
same,Constitutive internalisation (100 nM),[7],0.5393
same,"Internalisation, +GIP",[7],53.8917
same,"Internalisation, GIP-only",[7],15.145
same,"Internalisation, Vehicle",[7],38.7467
